Data published in patent US20260242478A1 (published 2026).
Where no end group is shown, it is not given here.

Legend:
[1] = target: T1, Anti-PSMA Fab (SEQ ID NOs: 19, 20); test: phage binding ELISA; clonal phage supernatant on biotinylated PSMA Fab captured on neutravidin plates, anti-M13 HRP detection
T1 construct: Biotinylated PSMA Fab captured on neutravidin coated plates in the phage ELISA; also called 006 PSMA Fab
Experimental: (§1) Clonal phage were harvested as crude supernatants and screened via standard ELISAs. […] Prior to the addition of clonal phage. wells were incubated with blocking buffer and PSMA antigen or blocking buffer alone. Without washing or aspirating, clonal phage supernatants were then added to the wells and incubated for a short time. Wells were then washed followed by detection of bound phage using a horse radish conjugated anti-M13 antibody.

[2] = target: T1, Anti-PSMA Fab (SEQ ID NOs: 19, 20); test: phage binding ELISA on captured PSMA Fab pre-incubated with PSMA antigen as competitor, anti-M13 HRP detection
Experimental: as §1

[3] = target: T2, Anti-PSMA Fab (SEQ ID NOs: 19, 20); test: phage binding ELISA; biotinylated PSMA Fab on neutravidin plate pre-incubated with PSMA antigen (competitor), anti-M13 HRP detection;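 also: competition ELISA where clonal phage supernatants were added to wells preincubated with PSMA antigen or with blocking buffer only as control, bound phage read via HRP-coupled anti-M13 antibody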
T2 construct: In the panning ELISA the Fab was biotinylated and captured on neutravidin coated plates; also called 006 PSMA Fab
Experimental: as §1

[4] = target: T2, Anti-PSMA Fab (SEQ ID NOs: 19, 20); test: phage binding ELISA; biotinylated PSMA Fab on neutravidin plate, clonal phage supernatant, anti-M13 HRP detection;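 also: wells were preincubated with blocking buffer either containing PSMA antigen or without it before crude phage supernatant was added, briefly incubated, then washed prior to detection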
Experimental: as §1

[5] = target: T3, Anti-PSMA Fab (SEQ ID NOs: 19, 20); test: phage binding ELISA on captured PSMA Fab; competitor PSMA antigen pre-incubated in the well
T3 construct: Biotinylated and captured on neutravidin coated plates in the phage ELISA; also called 006 PSMA Fab
Experimental: as §1

[6] = target: T3, Anti-PSMA Fab (SEQ ID NOs: 19, 20); test: phage binding ELISA; biotinylated PSMA Fab on neutravidin plate, bound phage detected with anti-M13 HRP
Experimental: as §1

Row | Binder | Anti-PSMA Fab signal in the presence of PSMA [3] | Anti-PSMA Fab (SEQ ID NOs: 19, 20) signal [4] | Anti-PSMA Fab signal in the presence of PSMA [5] | Anti-PSMA Fab (SEQ ID NOs: 19, 20) signal [6] | further results
1 | SFAWCIPPWMCEIT [Phage-1915] |  |  |  |  | Anti-PSMA Fab (SEQ ID NOs: 19, 20) signal [1]: 2; Anti-PSMA Fab signal in the presence of PSMA [2]: 0.127
2 | WEKWCIPAWMCVAD (tested as crude clonal phage supernatant) [Phage-1886] | 0.134 | 2.05 |  |  | 
3 | AIKWCIPSWMCVED (tested as crude clonal phage supernatant; also called AIKWCIPSWMCVED) [Phage-1890] | 0.0876 | 2.04 |  |  | 
4 | GDPWCIPAWMCMEF [Phage-1911] |  |  |  |  | Anti-PSMA Fab (SEQ ID NOs: 19, 20) signal [1]: 2.01; Anti-PSMA Fab signal in the presence of PSMA [2]: 0.088
5 | VEILCKPKWMCEFW (tested as crude clonal phage supernatant) [Phage-1878] | 0.109 | 2.07 |  |  | 
6 | SAHMCIPPWMCLHT [Phage-1907] |  |  |  |  | Anti-PSMA Fab (SEQ ID NOs: 19, 20) signal [1]: 2.02; Anti-PSMA Fab signal in the presence of PSMA [2]: 0.133
7 | SLHWCIPAWMCDFV (tested as crude clonal phage supernatant) [Phage-1879] | 0.185 | 2.07 |  |  | 
8 | FEKWCTPAWMCAGW (cysteine pairing not given here; also: fused to phage pIII, sequence and linker not given here, Peptide-180 library clone, tested as clonal phage supernatant; not shown: pIII of the bacteriophage to which the peptide is fused) [Phage-1894] |  |  | 0.0792 | 2.04 | 
9 | VLMLCKPAWMCMGF (tested as crude clonal phage supernatant) [Phage-1880] | 0.375 | 2.07 |  |  | 
10 | VMKWCIPEWMCYML [Phage-1906] |  |  |  |  | Anti-PSMA Fab (SEQ ID NOs: 19, 20) signal [1]: 2.02; Anti-PSMA Fab signal in the presence of PSMA [2]: 0.204
11 | EIRLCTPSWMCMGF (cysteine pairing not given here; also: displayed as fusion to phage pIII, Peptide-180 library clone, tested as clonal phage supernatant; not shown: pIII of the bacteriophage to which the peptide is fused) [Phage-1905] |  |  | 0.0792 | 2.02 | 
12 | MMKWCIPTWMCEME [Phage-1912] |  |  |  |  | Anti-PSMA Fab (SEQ ID NOs: 19, 20) signal [1]: 2; Anti-PSMA Fab signal in the presence of PSMA [2]: 0.132
13 | LIPWCIPAWMCTSD (cysteine pairing not given here; also: displayed as fusion to phage pIII, Peptide-180 library clone, tested as clonal phage supernatant; not shown: pIII of the bacteriophage to which the peptide is fused) [Phage-1902] |  |  | 0.0863 | 2.03 | 
14 | FDKWCIPPWMCQAL (cysteine pairing not given here; also: fused to phage pIII, sequence and linker not given here, Peptide-180 library clone, tested as clonal phage supernatant; not shown: pIII of the bacteriophage to which the peptide is fused) [Phage-1893] |  |  | 0.112 | 2.04 | 
15 | DVKWCIPAWMCEGF (cysteine pairing not given here; also: displayed as fusion to phage pIII, Peptide-180 library clone, tested as clonal phage supernatant; not shown: pIII of the bacteriophage to which the peptide is fused) [Phage-1904] |  |  | 0.105 | 2.02 | 
16 | MMKWCTPAWMCEEA [Phage-1909] |  |  |  |  | Anti-PSMA Fab (SEQ ID NOs: 19, 20) signal [1]: 2.01; Anti-PSMA Fab signal in the presence of PSMA [2]: 0.0691
17 | VPKLCTPVWMCTGF (cysteine pairing not given here; also: fused to phage pIII, sequence and linker not given here, Peptide-180 library clone, tested as clonal phage supernatant; not shown: pIII of the bacteriophage to which the peptide is fused) [Phage-1892] |  |  | 0.0783 | 2.04 | 
18 | AEKWCFPAWMCERP (cysteine pairing not given here; also: fused to phage pIII, sequence and linker not given here, Peptide-180 library clone, tested as clonal phage supernatant; not shown: pIII of the bacteriophage to which the peptide is fused) [Phage-1898] |  |  | 0.0803 | 2.03 | 
19 | VNKLCTPEWMCVGM (tested as crude clonal phage supernatant) [Phage-1883] | 0.0609 | 2.06 |  |  | 

Row | Binder | Anti-PSMA Fab signal in the presence of PSMA [3] | Anti-PSMA Fab (SEQ ID NOs: 19, 20) signal [4] | Anti-PSMA Fab signal in the presence of PSMA [5] | Anti-PSMA Fab (SEQ ID NOs: 19, 20) signal [6] | further results
20 | IDMRCTPNWMCIGF (cysteine pairing not given here; also: displayed as fusion to phage pIII, Peptide-180 library clone, tested as clonal phage supernatant; not shown: pIII of the bacteriophage to which the peptide is fused) [Phage-1903] |  |  | 0.081 | 2.03 | 
21 | TDMWCTPMWMCMGF (cysteine pairing not given here; also: displayed as fusion to phage pIII, Peptide-180 library clone, tested as clonal phage supernatant; not shown: pIII of the bacteriophage to which the peptide is fused) [Phage-1901] |  |  | 0.0829 | 2.03 | 
22 | DVMWCKPSWMCDWL (tested as crude clonal phage supernatant) [Phage-1889] | 0.127 | 2.04 |  |  | 
23 | ESIRCIPLWMCEGF [Phage-1913] |  |  |  |  | Anti-PSMA Fab (SEQ ID NOs: 19, 20) signal [1]: 2; Anti-PSMA Fab signal in the presence of PSMA [2]: 0.0894
24 | VIKWCTPAWMCTAL [Phage-1914] |  |  |  |  | Anti-PSMA Fab (SEQ ID NOs: 19, 20) signal [1]: 2; Anti-PSMA Fab signal in the presence of PSMA [2]: 0.0733
25 | GDILCRPEWMCTGF [Phage-1910] |  |  |  |  | Anti-PSMA Fab (SEQ ID NOs: 19, 20) signal [1]: 2.01; Anti-PSMA Fab signal in the presence of PSMA [2]: 0.111
26 | LEKWCTPAWMCEML (tested as crude clonal phage supernatant) [Phage-1881] | 0.0814 | 2.06 |  |  | 
27 | SVKMCTPAWMCSGF (cysteine pairing not given here; also: fused to phage pIII, sequence and linker not given here, Peptide-180 library clone, tested as clonal phage supernatant; not shown: pIII of the bacteriophage to which the peptide is fused) [Phage-1899] |  |  | 0.0752 | 2.03 | 
28 | FAKWCIPEWMCSVS (tested as crude clonal phage supernatant) [Phage-1885] | 0.119 | 2.06 |  |  | 
29 | WDNWCIPPWMCIGF [Phage-1908] |  |  |  |  | Anti-PSMA Fab (SEQ ID NOs: 19, 20) signal [1]: 2.02; Anti-PSMA Fab signal in the presence of PSMA [2]: 0.186
30 | WSNWCTPEWMCVGF (tested as crude clonal phage supernatant) [Phage-1888] | 0.0814 | 2.05 |  |  | 
31 | LEKWCIPAWMCEWS (cysteine pairing not given here; also: fused to phage pIII, sequence and linker not given here, Peptide-180 library clone, tested as clonal phage supernatant; not shown: pIII of the bacteriophage to which the peptide is fused) [Phage-1891] |  |  | 0.113 | 2.04 | 
32 | MEKLCIPAWMCDGM (cysteine pairing not given here; also: fused to phage pIII, sequence and linker not given here, Peptide-180 library clone, tested as clonal phage supernatant; not shown: pIII of the bacteriophage to which the peptide is fused) [Phage-1897] |  |  | 0.279 | 2.03 | 
33 | WEKMCVPSWMCHFS (cysteine pairing not given here; also: fused to phage pIII, sequence and linker not given here, Peptide-180 library clone, tested as clonal phage supernatant; not shown: pIII of the bacteriophage to which the peptide is fused) [Phage-1895] |  |  | 0.0735 | 2.03 | 
34 | VSRLCIPTWMCDYS (cysteine pairing not given here; also: displayed as fusion to phage pIII, Peptide-180 library clone, tested as clonal phage supernatant; not shown: pIII of the bacteriophage to which the peptide is fused) [Phage-1900] |  |  | 0.0757 | 2.03 | 
35 | VTPWCTPSWMCFGF (tested as crude clonal phage supernatant) [Phage-1882] | 0.072 | 2.06 |  |  | 
36 | MVMRCQPEWMCTGI (tested as crude clonal phage supernatant) [Phage-1884] | 0.122 | 2.06 |  |  | 
37 | VLKWCTPAWMCEIF (cysteine pairing not given here; also: fused to phage pIII, sequence and linker not given here, Peptide-180 library clone, tested as clonal phage supernatant; not shown: pIII of the bacteriophage to which the peptide is fused) [Phage-1896] |  |  | 0.141 | 2.03 | 
38 | LDHWCFPMWMCTGF (tested as crude clonal phage supernatant) [Phage-1887] | 0.233 | 2.05 |  |  | 
